For this series, the target named is NS3H (NS3 helicase domain) WT (Tick-borne encephalitis virus strain …, UniProt Q01299 1662-2110). The series can be described thus: fluorescence anisotropy; 1 mM Mg2+; no nucleotide; apparent KD; 20 mM Tris-HCl pH 7.5, 100 mM NaCl, 1 mM MgCl2, 7.5% glycerol; 45 min at 30 C; […]. The settings on record: protein: recombinant; tags: N-terminal 10xHis (pET-19b); label: 5' 6-FAM; single strand. (In general: Polarisation of emitted light reports the rotation of a fluorescent probe.)
Sequence of NS3H (NS3 helicase domain) WT (Q01299 1662-2110): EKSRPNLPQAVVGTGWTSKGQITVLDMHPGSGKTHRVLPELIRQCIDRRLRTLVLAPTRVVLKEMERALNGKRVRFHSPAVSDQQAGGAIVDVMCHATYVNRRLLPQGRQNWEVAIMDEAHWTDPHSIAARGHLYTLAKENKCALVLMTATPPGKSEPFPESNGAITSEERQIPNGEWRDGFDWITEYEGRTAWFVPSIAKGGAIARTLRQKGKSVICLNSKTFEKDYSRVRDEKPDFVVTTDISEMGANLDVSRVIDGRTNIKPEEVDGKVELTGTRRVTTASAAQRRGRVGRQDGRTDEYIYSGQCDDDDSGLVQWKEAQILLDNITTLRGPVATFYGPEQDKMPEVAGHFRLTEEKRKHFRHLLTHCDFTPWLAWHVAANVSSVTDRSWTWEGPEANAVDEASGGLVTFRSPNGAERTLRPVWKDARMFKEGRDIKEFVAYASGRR

On to AGAUUUUCUUGC (ssRNA) [6-FAM-ssRNA12], for which the Kd was found to be 49.7 ± 9.3 nM.

Values taken from paper PMC9490040, “Mechanistic insight into the RNA-stimulated ATPase activity of tick-borne encephalitis virus helicase”.
